Assay results from patent US20200181597A1, “Composition and Application of Arginine-depleting Agents for Cancer, Obesity, Metabolic Disorders, and Related Complications and Comorbidities” (THE HONG KONG POLYTECHNIC UNIVERSITY, priority 2018, published 2020).

What was measured:
[1] = Arginase specific activity, DAMO colorimetric assay; assay type: biochemical; conditions: 37° C., pH 7.4, purified preparation
Description: The arginase activity of the fusion proteins described herein can be substantially the same, lower, or higher than the activity of the arginase polypeptide from which it is derived. One unit of arginase activity is defined as the amount of fusion protein [e.g., BHA (SEQ ID NO; 75), BAH (SEQ ID NO: 76), N-ABD-rhArg (SEQ ID NO: 49), or N-ABD094-rhArg (SEQ ID NO: 50)] or arginase [e.g., BCA (SEQ ID NO: 70)] that catalyzes the production of 1 μmol of urea per min under standard assay conditions. The specific activity of the enzyme is expressed as activity units per mg of protein. Under standard diacetylmonoxime (DAMO) assay conditions (37° C., pH 7.4), the fusion proteins can have a specific activity that is about 5%, about 10%, about 15%, about 20%, about 25% about 30%, about 35% or about 40% lower or higher than the corresponding arginase polypeptide which it incorporates. In certain embodiments, fusion proteins can have a specific activity that is about 5% to about 40%, about 10% to about 40%, about 10% to about 35%, about 10% to about 30%, about 20% to about 30%, about 20% to about 35%, about 15% to about 30%, about 15% to about 25%, or about 10% to about 20% lower or higher than the corresponding arginase polypeptide which it incorporates.
One unit of enzyme activity is defined as the amount of enzyme (BCA, BHA or BAH) that catalyzes the production of 1 μmol urea per min under standard assay conditions. Specific activity of the enzyme is expressed as activity units per mg of protein.
Briefly, a serial dilution of 0.3 mL BCA solutions together with 0.15 mL water and 720 mM arginine substrate at pH 7.4 was pre-incubated separately at 37° C. for 10 min. The enzymatic reaction was carried out by adding 0.3 mL arginine substrate to the pre-incubated enzyme solutions. […]
The urea formed from the above reaction was quantified using the DAMO direct colorimetric method described by World Health Organization (WHO). […] The absorbance at 540 nm was measured. […]

[2] = DIO mice treated with 600U for 20 weeks; assay type: in vivo, C57BL/6J male mice
Description: Together, these findings support that N-ABD094-rhArg (SEQ ID NO: 50) is safe and effective for long term use.

HCT116 = experiment: cells; conditions: HCT116, Day 3
Description: (§1) The in vitro efficacy of ABD and rhArg fusion protein was tested on human colon cancer cell lines. Human colon cancer cell lines (HCT116, LOVO and HT29) were seeded in 96-well plate at densities of 5×10^3 cells/well. After 1 day of incubation, the culture medium was replaced with medium containing different concentrations (2, 0.4, 0.08, 0.016 and 0.0032 U/ml) of N-ABD094-rhArg (SEQ ID NO: 50). MTT assay was conducted at Day 3 [3 days after N-ABD094-rhArg (SEQ ID NO: 50) treatment] to determine the IC50 values. The culture medium was replaced with MTT solution (1 mg/ml) (Invitrogen) and incubated at 37° C. for 4 h. After incubation, MTT solution was replaced with dimethyl sulfoxide (DMSO), and the absorbance at 570 nm was measured with a reference of 650 nm. The cell viability was determined by dividing the absorbance of N-ABD094-rhArg-treated cells by the average absorbance of untreated cells. […] Three independent sets of experiments (n=3) were performed for each cell line.
(§2) MTT assay was conducted at Day 3. Three independent sets of experiments (n=3) were performed for each cell line.
(§3) For drug-combination assay, a non-constant ratio analysis was performed (Hastak et al., 2010, Cancer Res. 70(20):7970-7980). Colon cancer cells were seeded and after 1 day of incubation, the culture medium was replaced with medium containing different concentrations of N-ABD094-rhArg (SEQ ID NO: 50) (2, 0.4, 0.08, 0.016, 0.0032 U/ml) combined with fixed amount of CQ according to its IC50. MTT assay was conducted at Day 3. The combination index (CI) of combined N-ABD094-rhArg (SEQ ID NO: 50) and CQ treatment was analyzed by software CalcuSyn version 2.1. Three independent sets of experiments (n=3) were performed for each cell line.

HT29 = experiment: cells; conditions: HT29, Day 3
Description: as §1, §2, §3

LOVO = experiment: cells; conditions: LOVO, Day 3
Description: as §1, §2, §3

B1: N-ABD094-rhArg: albumin binding domain ABD094 fused N-terminally to recombinant human arginase I, SEQ ID NO: 50 (protein)
chain: MHHHHHHDEAVDANSLAEAKEAANAELDSYGVSDFYKRLIDKAKTVEGVEALKDAILAALPSGSNNNNNNGSGGMSAKSRTIGIIGAPFSKGQPRGGVEEGPTVLRKAGLLEKLKEQECDVKDYGDLPFADIPNDSPFQIVKNPRSVGKASEQLAGKVAEVKKNGRISLVLGGDHSLAIGSISGHARVHPDLGVIWVDAHTDINTPLTTTSGNLHGQPVSFLLKELKGKIPDVPGFSWVTPCISAKDIVYIGLRDVDPGEHYILKTLGIKYFSMTEVDRLGIGKVMEETLSYLLGRKKRPIHLSFDVDGLDPSFTPATGTPVVGGLTYREGLYITEEIYKTGLLSGLDIMEVNPSLGKTPEEVTRTVNTAVAITLACFGLAREGNHKPIDYLNPPK
modifications: Mn2+; N-ABD094-rhArg, Synthesized in the Lab
- Specific activity [1]: 184 U/mg
- plasma arginine concentrations ([2]; 600U for 20 weeks, Biochrom 30 detection limit): < 3 µM
- bodyweight ([2]; 600U, by 5 weeks, maintained to 20 weeks without rebound): reduced to a level similar to the lean control mice
- IC50 (HCT116): 0.22 U/ml
- IC50 (HT29): 0.58 U/ml
- IC50 (LOVO): 0.38 U/ml
